{"source": "patent US20120093835A1", "about": "(DECIMMUNE THERAPEUTICS, published 2012)", "binders": {"B1": {"name": "IgG^21G6 (21G6 IgG), antibody produced by murine B-cell hybridoma 21G6 (ATCC PTA-9393) (antibody, V domains shown)", "VH": "QVQLQESGAELVKPGASVKLSCKASGYTFTSYYMYWVKQRPGQGLEWIGGINPSNGGTNFNEKFKSKATLTVDKSSSTAYMQLSSLTSEDSAVYYCTRWGYDREWFAYWGQGTLVTVSA", "VL": "DIVMTQAAPSVPVTPGESVSISCRSSKSLLHSNGNTYLYWFLQRPGQSPQVLIYRMSNLASGVPDRFSGSGSGTAFTLRISRVEAEDVGVYYCMQHLEYPFTFGSGTKLEIKR", "notes": "also called anti-N2 mAb"}, "B2": {"name": "IgG^12A6 (12A6 IgG), antibody produced by murine B-cell hybridoma 12A6 (ATCC PTA-9392) (antibody, V domains shown)", "VH": "QVTLKESGPGILQPSQTLSLTCSFSGFSLSTFGIGVGWIRQPSGKGLEWLAHIWWNDNNYYNTSLKSRLTISKDTSNNQVFLKIASVDTADTATYYCARVGGINFSMDYWGQGTSVTVSS", "VL": "DIVMTQSASSLAVSAGEKVTMNCKSSQSVLYSSNQKNYLAWYQQKPGQSPKLLIYWASTRESGVPDRFTGSGSGTDFTLTISSVQAEDLAVYYCHQYLSSWTFGGGTKLEIKR", "notes": "also called 12A6 hybridoma antibody; anti-N2 antibody (12A6)"}}, "biological_target": "T1, N2 peptide (Ac-LMKNMDPLNDNV), N2 self-peptide of Mouse NMHC-IIB (592-603) (mouse (the filing says the region is …, not fully specified; printed as Ac-LMKNMDPLNDNV)", "T1 peptide": "Ac-LMKNMDPLNDNV", "test": "not described (in vitro and in vivo binding of hybridoma antibody to N2 peptide)", "note": "Where no end group is shown, it is not given here.", "data": [{"binder": "B1", "values": [{"measurement": "binding result", "value": "binds"}]}, {"binder": "B2", "values": [{"measurement": "binding result", "value": "binds"}]}]}
